Measured values reported in the DeepSol protein solubility set.

experiment: soluble on expression in E. coli; label from the status in PepcDB or PDB records

Sequence | soluble on expression in E. coli
MSLTQEFIDKVSSYLTPDVDIAPISQGAEAIVFTTTTHPYLPRAKDSHQKYIIKYRPPKRYRHPQIDQALTKHRTLNESRLLAKLYLIPGLCVPQLIACDPYNGFIWLEFLGEDLPGGHGFSNLKNFLWMHDQDPYSDLVATTLRKVGRQIGLLHWNDYCHGDLTSSNIVLVRDGARWTPHLIDFGLGSVSNLVEDKGVDLYVLERAILSTHSKHAEKYNAWIMEGFEEVYREQGAKGAKKLKEVTKRFEEVRLRGRKRSMLGEGHHHHHH | not soluble
MKLLVATTNEGKYREIKEILSEYGIEVLKPEEKLEVEETGCTFLENAYLKARAYYERYKIPALADDSGLIVEAISPYPGVYSSRFYDIDFGGREEVRTNKDEANIRKLLRLLENTENRKAKFVAFIVVYGGSWGIFAEGEVRGEITKEPRGDRGFGYDPVFVPEGYNKTMAELSPEEKNKISHRGRALRKLVHVLKNCEKAF | soluble
MKPLKRHPALIGLSRDHHHSLSLCVRLLRTPEERHRDELEPHFSELETHFREEETKFAPIWQNVAPELKQRFEKDHARLRQMMASPEYGNAAWNTAFATTLRDHARFEERELFPAAEPFLPA | not soluble
MGYTKKVYEGGSNVDQFVTRFLLKETANQIQSLLSSVESAVEAIEEQTSQLRQNHIKPSHSAAQTWCGSPTPASAPNHKLMAMEQGKTLPSATEDAKEEGLEAQISRLAELIGRLESKALWFDLQQRLSDEDGTNMHLQLVRQEMAVCPEQLSEFLDSLRQYLRGTTGVRNCFHITAVRLSDGFTFVIYEFWETEEAWKRHLQSPLCKAFRHVKVDTLSQPEALSRILVPAAWCTVGRD | not soluble
MAMPEKSSDVKPTEECGSFPEIIELNVGGQVYITRYPTLISIPGSRLWEMFSVKNPCSLIQDNKGRFFIDRDGFLFRYVLDYMRDMQVVLPDHFPECGRLHREAEYFKLPELAKMLAPKMNKLNSIGNDSCPIDLEELSPSIDTTFNFSSTNSIHISGPDNPMVLRAAPGSELKKAGFITIGYRGSYTLGRDSQADAKFRRVARIMVCGKISLAKEVFGDTLNESRDPDRPPERYTSRYYLKFTFLEQAFDKLADAGFHMVACNSTGTCTVTHDQTDDRIWTSYTEYVFYRE | soluble
MSLNCTLDELRQRIEAHRPRQLDTDQRFPQAAVLVPITRSDDPELVLTLRAAGLSTHGGEVAFPGGRRDPEDADLVRTALREAEEEIALPPGLVEVVGPLSTLVSRHGIEVTPYVAFIPDFVEYQPNDGEIAAVFNVPLSFFRDDPREVTHRIDYFGRSWYVPSYRFGEFKIWGLTAIMVVELVNLLYDDPIDLHTPPASFIKLSEGGSHHHHHH | soluble
MEEHPKILSIAGSDSCAGAGMQADLKTAMSLGCHCCTILVVLTAQNTKEVKSIIEVDEKFIVEQLDAIFTDITIEVVKLGVLYSKKIISLIHNYITNINKMREKKLLVVFDPVFVSSSGCMLVENLDYVKYALDLICPLSCIITPNFYECKVILEALNFNIDINNMRTSDLCKLVTEKLNINACLFKSCNIDINTEDENKLYAVDHLCIKNDNDYDTKIKQNISYDVYKLKSKRNPQKDIHGTGCTLSTAISCFLSKKYDIIQACIESKKYIYNCINYAYDLGSKSQGLNHLKAAQHLTDFRELQVIKVD | not soluble
STTEIGWWKLTFLRKKKSTPKVLYEIPDTYAQTEGDAEPPRPDAGGPNSDFNTRLEKIVDKSTKGKHVKVSNSGRFKEKKKVRATLAENPNLFDDHEEGRSSK | soluble
MSLKHEQIINEKIIIDTSIFTNPEVYQTFGNDPTDALRSFLEIISKLKGPIFYMPQTIYEELLNFVEIKDIQVDLQMLLQQKSPKRYELTVPAFLLYELIEDVRLRIDKGLRVAETAVRETSPDTEPEAIANLRKKYRMALREGIIDSKEDVDLILLAKEMDGIMMTADTGIVKWADKLGIRYIDPRMLRSILDKLAAASEGHHHHHH | soluble
MGSDKIHHHHHHMHQLKREALLREAIAAFNQKGFHATSLGDIATSLGVTKAALYHYFPNKHALLFEAFAEALRVGFEAIEAAERHGGSGLDKLQMAVREYLQVTLSEMSRCVIITEEHALEPQDRAKIVEQRDRFEAKLRGFVREGIEDGSVIPCDPKLAIFSIFGAVNWVPKWFSDSGNWSNKQLAKGMSELLCRAVARHPAEAFAPDIGKMRVE | not soluble
MGSDKIHHHHHHMTDNIKSRRSAVPGCAIHCHDCSMGTLCIPFTLNNNELDQLDDIIERKKPIQKGEQIFKSGDSLKSLYAIRSGTIKSYTITEQGDEQITGFHLAGDVIGFDGIHSQIHQSFAQALETSMVCEIPFDTLDELSGTMPKLRQQIMRLMSNEIQSDQEMILLLSKKNAEERLAAFISNLASRFGSRGFSPKEFRLTMTRGDIGNYLGLTVETISRLLGRFQKAELIEVKGKYITIVDFDSLNKLAGNNKIGR | not soluble
PSKKNGRSGPQPHKRWVFTLNNPSEDERKKIRDLPISLFDYFIVGEEGNEEGRTPHLQGFANFVKKQTFNKVKWYLGARCHIEKAKGTDQQNKEYCSKEGNLLMECGAPRSQGQR | soluble
MIMIFTSSCCDNLSIDEIIERAEKGDCEAQYIVGFYYNRDSAIDSPDDEKAFYWLKLAAEQGHCEAQYSLGQKYTEDKSRHKDNEQAIFWLKKAALQGHTFASNALGWTLDRGEAPNYKEAVVWYQIAAESGMSYAQNNLGWMYRNGNGVAKDYALAFFWYKQAALQGHSDAQNNLADLYEDGKGVAQNKTLAAFWYLKSAQQGNRHAQFQIAWDYNAGEGVDQDYKQAMYWYLKAAAQGSVGAYVNIGYMYKHGQGVEKDYQAAFEWFTKAAECNDATAWYNLAIMYHYGEGRPVDLRQALDLYRKVQSSGTRDVSQEIRETEDLLLEHHHHHH | not soluble
MGLEDDFLLEDADDEKTVEFIKNYLPQELKEKFEDDELYYFLDLIDEYYSESGILDAQPDNDGYVNIDLEEVVAYIVKEAKKDEMGEYDPEEILFVVQGEMEYGNSLGQVD | not soluble
MGSDKIHHHHHHKDDADAPLRFYDSKYEVPMGGRRYLGIESGNGDYSLEIGNPRIASAGIESGWSGVPAGRMIYISGILTGSTYLKVTDNATQETLTLPIKVVDYYEDLNLIHGSSSLRPNGDENLLPGVDDIFLVSNAARDAYFFKQGQRTAFSSGLELITKGTYALKQEDENKATLTLTFSLDASPATEHHFTVWGNTYLLHRLDKNLHLNWGTPPIGETRTSPAPPPAYTLEEITEGAEPGTGRQVGFILNYKEIPTGILP | not soluble
MGSDKIHHHHHHMTWGFKNRLNTILPDGRAVMLAIDHGYFLGPIHGLEQPLETVKNLLPYTDSLFLTRGVLSSCIPENCSTPMVIRVSGGATVVGKDLANETIVTPVKEAVKQNAIGVGVSVFVGSDYETQTVTNLANVVSEAHDYCLPVLGITAVAKELQKREARFLALASRVCVEMGADIIKTYYCEGFEKITSTCPAPVVIAGGPKLDSIEDALNITYNALQEGAIGVDMGRNIWQSEHPAAMIQAIHGIVKNGLNVKEALQLYEDVKN | not soluble
MSLAARLIRSSRSNTFGIITDYVSTTPYSVDIVRGIQDWANANGKTILIANTGGSSEREVEIWKMFQSHRIDGVLYVTMYRRIVDPESGDVSIPTVMINCRPQTRELLPSIEPDDYQGARDLTRYLLERGHRRIGYIRLNPILLGAELRLDAFRRTTSEFGLTENDLSISLGMDGPVGAENNYVFAAATEMLKQDDRPTAIMSGNDEMAIQIYIAAMALGLRIPQDVSIVGFDDFRTVTMALKPELTTAALPYYDLGREGAKWLNDLIAGEKIYPGSRVVSCKLVERSSAAFGEGHHHHHH | soluble
MKAFDQVNHSLLLHKLHDFGINPLFCNWFHDFLSSRTFSVKVNNHIDPNIHPIPSGVPQGSVSGPFLFLIFINSLLLSLPPTISCSAFADDLKVYSHSPPLIQTTIDLITAWSENNKLPLAHSKTCLLHLGKKNPKTVYKINNLPISPSNVARDLGILTDSKLTFKTHIKKIVFLALLRCKQLLKSFKSLCPEFCCNLFKTYILPLIEYGSAVYSPKPSSSLSTLLEKPLRWYSQKVLQKCNISYSSYNDRLKSLNLHSIRHRRLKSKLILLYKFCCGTSFLPQKETYFKLSTSSRRPMRIICHNPSSNNFFSDTISFWNAITNNCDTFLSPIHFENLVDNSITRL | not soluble
MHSVARENLQAYLHSYKLSSNEPGIKLMHNSQRDDQHRKDVEHFAALRALQHSKRKHVAFAVQAMRDYDGSLDEKSPLKDHTISFNTNDFIHIHTKFNSDWWIGRIVRSHSEFGFVPTARRLANYMVSDEDPPVKHNTSDHQDRSIWEPKCPYKVVPSSRPIVLLGPTLQHSRLTQLLHLALREEILKHFGKNMKYVKSDIGSGQQSGDRKGARWLRGLRDYDRGQDENQEVELIMRMTSKLHLLLVDSPHIHTPDDVQHLPLSPIFFLIRVSDNKILAKLLRNTGTTRMAAEIEVANVLKTMNDDRVGGHDDEQLIARGFEMVIEENGLREATRRIISYLEKYIHALHYHHKDDEI | not soluble
MRPDDAIELFNSCRGHCIERQNYIENLQKRHVRKNRNVSAPRTDGLEDSADPTEQVYTNNKPVKKKPRKNRRGGHLAPSQHFQHQTQSSPYSLRKWSQNQSVYQRGLVPPPGPAGEDYSQRRFFWSARPNKWTAESYQRPFYPYYWEWNL | not soluble
MNSPFAAETLLFERSRPRPEALRVIYGFPNTYSVGITSLGYQLVWAQLASRADVAVSRLFTDVQEPLPRDPELVGFSFSWELDYGNLLVLLEQLGIPIWQRDRHDCHPLVFGGGPVLTANPEPFADFFDVILLGDAEPLLDPFLTTMAQVRTAARSQRLEALAHVPGIYVPSLYHVSYSHPTGPIQRIEPIKASVPPTVTKQVHRGHTLAASTVVTPLAAWENIYMVEVVRSCPELCRFCLASYLTLPFRTPSLETLIPAIERGLAVTDRLGLLGASITQHPEFPALIEHLGQPQFDHVRVSLASVRTNTVTESLAQLLSQRGSQSLTIAIETGSERLRQVINKKLETEEILAAASHAQAGGLKGLKFYGMVGLPTETDADVAATVDLFCQLKKTAPRLRLTLGCSTFVPKAHTPFQWWGVQPVAEKRLKFLKKELAKLGIEFRPESYNDSLIQALISRGDRRLAPLLEQVRHYGTSLGSYRRAFKERQGQLPDFEAYVNANWPEETVLPWQHLQSGLPTKTLENHLKRAIALEHHHHHH | not soluble
MGSDKIHHHHHHFACKEETDLYFNGDITVIKSFDNDTLLSPVKVELEDIYDGSVLAYDSLLFFTSHKYSDCWMYVFSVNSGKHIASLCPKGQGPNDYLSCKNSQQFIRENGELKLWVRDNAKSARLLNITKSIETGATVCDAIIPMDWNKYFVYPATTLFFLKDGYILGQNQCEEQYSKGKEYIPRKFYLYKDSLGNKVKEYKLFNRPVILKDDKYDVLSGMFYANHSYIHPDQTKVAIAMQRVAQITILDVKSGKQVGYRMDDTLDFSDIEQNLECIRYYYTSAAVNSRYIFALYIDQAEMGGKYPFKSKTVHVFNWEGRPVYKIQLDKEISWITLDPQNNRLYAQGEDDSIWAYDVSWLSK | not soluble
MGSDKIHHHHHHMADQTESVSGVNVDQAELQKFAELAHKWWDKNSEFKPLHEINPLRLNYIDEHAGLAGKRVLDVGCGGGILSESMSERGAEVTGIDLGEKALKVAKLHQYESSAKVDYRLISVEELAQESPESFDIVTCMEMLEHVPDPAAIVRACARLTKPGGKVFFSTINRNPKAYLFAVLGAEYVLNLLPRGTHEYEKFIKPSELAGWARAAGLDVIASKGMGYNPLTKRYKLNNDVSVNYILQTVK | not soluble
MAHHHHHHMASADSKAVLLSSQPGATAYSSTVAVKVQAGRMILQDGIVRPLLGSGFLFLLREGLLQDTVLTWVSSDGEEQCRVTLPPGRVKVSWVEKCRPSRVLLFDIDNGKQPLFFWMQSRSDELDEPVMHRIQHAIERNRQQAVAQHGRREIKMGTLQNILSDLWSEALAHDVNLVDILGSEKLLKALQEDPGFYTLRLKDYLPLGELDSGVPLDLKKLMNDRQVQWTAEILGTLLRHETTYSQLSASFLNGTMLWGANVTSFIVSIINIFLPQNEQQQMGESDN | not soluble
